System: MS2 coat protein
Test: apparent KD of MS2 coat protein; designed switch direction (-1 OFF switch, 1 ON switch): -1; higher = weaker reporter binding
Summary of the method: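 An oligonucleotide input, 200 uM small-molecule ligand, or no input was present during titration of SNAP-549-labelled MS2 coat protein, which was doubled from 0.7 or 1.5 nM to 3 µM. Designed RNA switches had been transcribed on Illumina chips by stalled E. coli RNA polymerase. Apparent KD per design is the median over clusters of curves fitted to normalised cluster fluorescence.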

[1] = Eterna round: R95, input ligand: FMN 200 uM
[2] = Eterna round: R95, input ligand: microRNA oligo, concentration not stated
[3] = Eterna round: R95, input ligand: none
[4] = input ligand: microRNA oligo, concentration not stated

Sequence	apparent KD of MS2 coat protein [1]	apparent KD of MS2 coat protein [2]	apparent KD of MS2 coat protein [3]	apparent KD of MS2 coat protein (input ligand: FMN 200 uM)	apparent KD of MS2 coat protein (input ligand: none)	apparent KD of MS2 coat protein [4]
AGAAAUGCCCAUGGCCGCAAGCCUUUUGCUUGUCUUACCACAUGAGGAUCACCCAUGUGACAUGGGCUCCUGAUAAU [Zace] (puzzle: Sensor v3, turn-off variant 2)	12.6 nM	10.4 nM	11 nM			
CUAGGUCGAGGAUAUACAUGAGGAUCACCCAUGUCGGUUCCAUGAGAGCUAGACACUAGUAGAAGGCGGUAGGC [Eternabot (L2) Solution 60] (Eterna round: R97, puzzle: Exclusion 3)				26.1 nM	27.8 nM	
CAUUUCAGUCGGAGAUCCAACAUGAGGAUCACCCAUGUCUCUAAAGCUUUUUGCUCGUCUUAUCCUCCUUUGUUCAC [JR_STOV1_Sub098] (Eterna round: R97, puzzle: Sensor, turn-off variant 1)				458 nM	299 nM	
GGUUGACAUGAGGAUCACCCAUGUGAGGAUAUGCGAGAGAAAAAAGUGAGGAAGUUUAGCAGAAGGCGCUGUCG [salish99-ex1_r3_006] (puzzle: Exclusion 1)	55.6 nM	71 nM	97.7 nM			
GCCAGAGCAGGAUAUUCAUUAUAUCACAUGAGGAUCACCCAUGUCCAGCGAAAGCUGGAGGGAGAAGGGCUCUGGC [Fiskers Ex 5 - 24] (puzzle: Exclusion 5)	102 nM	225 nM	140 nM			
UAUUAGUAAGGAUAUCUCUGCAUGGACGAAAGUCCAUGCAGAGAGAAGGUACAUGAGGAUCACCCAUGUUCAUU [Mod of Fisker 17 - Jieux - Exclusion 4] (Eterna round: R97, puzzle: Exclusion 4)				17.1 nM	15 nM	
GCAGCAUAGUAUACUUACUGUUACAUGAGGAUCACCCAUGUACAGGAUAUGGUCUGGAUUACAGGCCAGAAGGGUACAAGCUGC [Eli exng3 - 024] (Eterna round: R96, puzzle: Exclusion NG 3)				10.3 nM	11.7 nM	8.12 nM
AGUUGUUGCGCAGGAUAUGAGGAUCACCCAUAGUAGGAUAUCGAAAGGGAAGGACUGAGGAUUACCCAGAAGGGCGUGAUGACA [pwkr exNG2 2xF5 2xFMN.7] (Eterna round: R96, puzzle: Exclusion NG 2)				1530 nM	302 nM	292 nM
AGCUGUGGCCGAGGAUAUCUAAACCUUCAAACCGAGGUAUACUCGGACAUGAGGAUCACCCAUGUAGAGAAGGCGGUCUCAGCA [Eli eng2 - 035] (Eterna round: R96, puzzle: Exclusion NG 2)				34.7 nM	13.4 nM	9.78 nM
AGUUUACAUGAGGAUCACCCAUGUGAGGAUAUGGAUUCGCUGGCCGUAGCCAGUGGAUCCAGAAGGCGCAUGAU [JL-ex1-4.13] (Eterna round: R97, puzzle: Exclusion 1)				401 nM	86.3 nM	
GCAUCCAAAGUGAGGAUAUACCUCUGGAUACAGAGGUAGAAGGCACAUGAGGAUCACCCAUGUUUCUAGGAUGC [Fiskers BMX 4 - 37] (puzzle: Brourd's mod of Exclusion 4)	21.2 nM	13.3 nM	13.9 nM			
AUUAUGUUAGGAUAUGCUUAUGGUGGAUAGUCCAGUAUGAUGUAGAAGGGACAUGAGGAUCACCCAUGUGCUGA [EX4 #34] (Eterna round: R97, puzzle: Exclusion 4)				46.9 nM	41.9 nM	
UUAACGUCAGGAUAUGCUUAAUAUAUUAUAUUAUAAUAUAUACAUGAGGAUCACCCAUGUAGAAGGGACAUUAU [LRO-Excl2-02-Fireball XL5] (Eterna round: R97, puzzle: Exclusion 2)				34.1 nM	52.1 nM	

Reference: the supplement of paper PMC9170038
